# Experimental data: the RNAGym collection of RNA variant scans (doi:10.1073/pnas.2313332121)
# B1: TPR t1 (parent)
# chain: GACCAAUCUGCCCUCAGAGCUCGAGAACAUCUUCGGAUGCAGAGGAGGCAGGCUUCGGUGGCGCGAUAGCGCCAACGUCCUCAACCUCCAAUGCAUCCCACCACAUGAUGAUGCCUGAAGAGCCUUGGUUUUUUG
# Variants of: B1
# Experiment: polymerase ribozyme fitness, log enrichment relative to wild type (log ratio); higher = more active; in vitro selection for triplet polymerase activity
# Summary of the method: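 To select mutant libraries of each subunit of a heterodimeric triplet polymerase ribozyme, built by PCR and transcribed, each was annealed with a biotinylated primer, partner subunit and triplets, then incubated frozen at −7 °C. Extended constructs were gel-excised, captured on streptavidin beads and amplified by RT-PCR, in one round carried out in triplicate. Illumina sequencing of input and output libraries kept genotypes with ≥10 input reads and ≥1 read per output. Fitness is the base-2 logarithm of genotype enrichment relative to wild-type enrichment, from inverse-variance-weighted replicate averages.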
row,Variant,polymerase ribozyme fitness (log ratio)
1,GACCAAUCUGCCCUCAGAGCUCGAGAACAUCUUCGGAUGCAGAGGAGGCAGGCUUCGGUGGUGCGAUAGCGCCAACGUCCUCAACCUCCAAUGCAUCCCCCCACAUGAUGACGCCUGAAGAGCCUUGGUUUUUUG [C62U A100C U112C],-1.92
2,GACCAAUCUGCCCUCAGAGCUCGAGAACAUCUUCGGAUGCAGAGGAGGCAGGCUUCGGUGGUCCGAUAGCGCCAACGUCCUCAACCUCCAAUGCAUCCCACCACAUGAUGAUGCCUGAAGAGCCUUGGUUUUUUG [C62U G63C],-2.14
3,GACCAAUCUGCCCUCAGAGCUCGAGAACAUCUUCGGAUGCAGAGGAGGCAGGCUUCGGUGGUGCUAUAGCGCCAACGUCCUCAACCUCCAAUGCAUCCCACCACAUGAUGAUGCCUGAAGAGCCUUGGUUUUUUG [C62U G65U],-3.73
4,GACCAAUCUGCCCUCAGAGCUCGAGAACAUCUUCGGAUGCAGAGGAGGCAGGCUUCGGUGGUGCGAUAGCGCCAACGCCCUGACCCUCCAAUACAUCCCACCACAUGAUGAUGCCUGAAGAGUCUUGGGUUUUUG [C62U U78C C82G A84C G93A C123U U129G],-1.05
5,GACCAAUCUGCCCUCAGAGCUCGAGAACAUCUUCGGAUGCAGAGGAGGCAGGCUUCGGUGGUGCGAUAGCGCCAACGUCCUCAACCUCCAAUGCAUGCCACCACAUGAUGAUGCCUGAAGUGCCUUGGUUUUUUG [C62U C97G A121U],-2.46
6,GACCAAUCUGCCCUCAGAGCUCGAGAACAUCUUCGGAUGCAGAGGAGGCAGGCUUCGGUGGUGCGAUAGCGCCAACGUCCUCAACCUCCAAUGCAUCCCACCACAUGAUGAUGCUUGAAGAGCCUUGGUUUUUUG [C62U C115U],-1.22
7,GACCAAUCUGCCCUCAGAGCUCGAGAACAUCUUCGGAUGCAGAGGAGGCAGGCUUCGGUGGUGCGAUAGCGCCAACGUCCUCAACCUCCAAUGCAUCCCACCACAAGAUGAUGCCUGAAUAGCGUUGGUUUUUUG [C62U U106A G120U C124G],1.54
8,GACCAAUCUGCCCUCAGAGCUCGAGAACAUCUUCGGAUGCAGAGGAGGCAGGCUUCGGUGGUGCGAUAGCGCCAACGUCCCCAACCUCCAAUGCAUCCCAUCACAUGAUGAUGCCUGAAGAGCCUUGGUUUUUUG [C62U U81C C101U],-0.199
9,GACCAAUCUGCCCUCAGAGCUCGAGAACAUCUUCGGAUGCAGAGGAGGCAGGCUUCGGUGGUGCGAUAGCGCCAACGUCCUCAACCUGCAAUGCAUCCCACCACAUGAUGAUGCCUGAAGAGCCUUGGUUUUUUG [C62U C88G],-0.561
10,GACCAAUCUGCCCUCAGAGCUCGAGAACAUCUUCGGAUGCAGAGGAGGCAGGCUUCGGUGGUGCGAUAGCGCCAACGUCCUCAACCUCCAAUGCAUCCCACCACAUGAUGAUGCCUAAAGAGCCUUGGUUUUUUG [C62U G117A],-1.28
11,GACCAAUCUGCCCUCAGAGCUCGAGAACAUCUUCGGAUGCAGAGGAGGCAGGCUUCGGUGGUGCGAUAGCGCCAACGUCCUCAACCUCCAAUGCAUCCCACCACAUGAUGAUGCCUUAAGAGCCUUGGUUUUUUG [C62U G117U],-2.6
12,GACCAAUCUGCCCUCAGAGCUCGAGAACAUCUUCGGAUGCAGAGGAGGCAGGCUUCGGUGGUUCGAUAGCGCCAACGGCCGCAACCUCCAAUGCAUCCCACCACAUGAUGAUGCCUGAAGAGCCUUGGUUUUUUG [C62U G63U U78G U81G],-5.08
13,GACCAAUCUGCCCUCAGAGCUCGAGAACAUCUUCGGAUGCAGAGGAGGCAGGCUUCGGUGGUGCGAUAGCGCCAACGUCCUCCACCUUCAAUGCAUCCCACCACAUGAUGAUGCCUGAAAAGCCUUGGUUUUUUG [C62U A83C C88U G120A],0.0358
14,GACCAAUCUGCCCUCAGAGCUCGAGAACAUCUUCGGAUGCAGAGGAGGCAGGCUUCGGUGGUGCGAUAGCGCCAACGUCCUCAAACUCCAAUGCAUCCCACCACAGGAUGAUGCCUGAAGAGGCUUGGUUUUUUG [C62U C85A U106G C123G],-1.11
15,GACCAAUCUGCCCUCAGAGCUCGAGAACAUCUUCGGAUGCAGAGGAGGCAGGCUUCGGUGGUGCGAUAGCGCCAACGUCCUCAGCCUCCAAUGCAUCCCAACACAUGAUGAUGCCUGAAGAGUCUUGGUUUUUUG [C62U A84G C101A C123U],-1.03
16,GACCAAUCUGCCCUCAGAGCUCGAGAACAUCUUCGGAUGCAGAGGAGGCAGGCUUCGGUGGUGCGAUAGCGCCAACGUCCGCUACCUCUAAUGCAUCCCACCACAUGAUGAUGCCUUAAGAGCCUUGGUUUUUUG [C62U U81G A83U C89U G117U],-5.98
17,GACCAAUCUGCCCUCAGAGCUCGAGAACAUCUUCGGAUGCAGAGGAGGCAGGCUUCGGUGGUUCGAUAGCGCCAACGUCCUCAACCUCCAAUGCAUCCCAUCACAUGAUGAUGCCUGAAGAGCCUUGGUUUUUUA [C62U G63U C101U G135A],-2.36
18,GACCAAUCUGCCCUCAGAGCUCGAGAACAUCUUCGGAUGCAGAGGAGGCAGGCUUCGGUGGUGCGAUAGCGCCAACGUCCUCAAUCUCCAAUGCAUCCCACCACAUGAUGAUGCCUGAAGAGACUUGGUUUUUUG [C62U C85U C123A],-1.23
19,GACCAAUCUGCCCUCAGAGCUCGAGAACAUCUUCGGAUGCAGAGGAGGCAGGCUUCGGUGGUGCGAUAGCGCCAACGUCCUCAACCUCCAUUGCAUCCCACCACAUGAUGAUGCCUGAAAAGCCUUGGUUUUUUG [C62U A91U G120A],-2.6
20,GACCAAUCUGCCCUCAGAGCUCGAGAACAUCUUCGGAUGCAGAGGAGGCAGGCUUCGGUGGUGCGAUAGCGCCAACGUCCUCAACCUCCAAUGCAUCCCACCAAAUGAUGAUGCCUGAAGAGCCUUGGUUUUUUG [C62U C104A],-1.29
21,GACCAAUCUGCCCUCAGAGCUCGAGAACAUCUUCGGAUGCAGAGGAGGCAGGCUUCGGUGGUGCGAUAGAGCCAACGUCCUCAACCUCCAAUGGAUCCCACCACAUGAUGAUGCCUGAAGAGCCUUGGUUUUUUG [C62U C70A C94G],-3.73
